Source: paper PMC3090699 (Amino acids, 2010)

Target: the molecule itself
Assay: SEC

B1: methionine adenosyltransferase from Methanococcus jannaschii, wild type (enzyme, UniProt Q58605 1-406, looked up)
chain: MRNIIVKKLDVEPIEERPTEIVERKGLGHPDSICDGIAESVSRALCKMYMEKFGTILHHNTDQVELVGGHAYPKFGGGVMVSPIYILLSGRATMEILDKEKNEVIKLPVGTTAVKAAKEYLKKVLRNVDVDKDVIIDCRIGQGSMDLVDVFERQKNEVPLANDTSFGVGYAPLSTTERLVLETERFLNSDELKNEIPAVGEDIKVMGLREGKKITLTIAMAVVDRYVKNIEEYKEVIEKVRKKVEDLAKKIADGYEVEIHINTADDYERESVYLTVTGTSAEMGDDGSVGRGNRVNGLITPFRPMSMEAASGKNPVNHVGKIYNILANLIANDIAKLEGVKECYVRILSQIGKPINEPKALDIEIITEDSYDIKDIEPKAKEIANKWLDNIMEVQKMIVEGKVTTF
  stoichiometry N: 2
